Results as given in patent US20110305703A1, “ISOLATED VEGF-C AND VEGF-D PEPTIDES AND USES THEREOF” (Vegenics Pty Limited, priority 2008, published 2011).
Positions count from the first letter of the chain named. Names and notes keep the numbering of the source.

B1: S150G/L151V: VEGF-DΔNΔC variant with double mutation S150G/L151V (mouse residues) (protein)
chain: MYREWVVVNVFMMLYVQLVQGSSNEHGPVKRSSQSTLERSEQQIRAASSLEELLRITHSEDWKLWRCRLRLKSFTSMDSRSASHRSTRFAATFYDIETLKVIDEEWQRTQCSPRETCVEVASELGKSTNTFFKPPCVNVFRCGGCCNEEGVICMNTSTSYISKQLFEISVPLTSVPELVPVKVANHTGCKCLPTAPRHPYSIIRRSIQIPEEDRCSHSKKLCPIDMLWDSNKCKCVLQEENPLAGTEDHSHLQEPALCGPHMMFDEDRCECVCKTPCPKDLIQHPKNCSCFECKESLETCCQKHKLFHPDTCSCEDRCPFHTRPCASGKTACAKHCRFPKEKRAAQGPHSRKNP
B2: E148S: VEGF-DΔNΔC variant with mutation E148S (protein)
chain: DYKDDDDKFYDIETLKVIDEEWQRTQCSPRETCVEVASELGKSTNTFFKPPCVNVFRCGGCCNSESLICMNTSTSYISKQLFEISVPLTSVPELVPVKVANHTGCKCLPTAPRHPYS
B3: E148S and S150G double mutation: VEGF-DΔNΔC variant containing both E148S and S150G (VEGF-C residues) (protein)
chain: B2 chain with S66G

system: VDnmAb; assay: Western blot of conditioned media containing VEGF-DΔNΔC variants probed with VDnmAb; format: binding; details: conditioned media of 293-F cells; in comparison to VEGF-DΔNΔC
Source text: Site-directed mutagenesis. DNA encoding VEGF-DΔNΔC, a form of mature human VEGF-D tagged at the N-terminus with the FLAG octapeptide (FIG. 11; SEQ ID NO: 145), was subjected to site-directed mutagenesis by PCR to generate VEGF-DΔNΔC variants. Mutations were introduced by amplification with the following primers: N147Q with 5'-[…] NO: 146) and 5'-[…] with 5'-[…] NO: 148) and 5'-[…] with 5'-[…] NO: 150) and 5'-[…] with 5'-[…] NO: 152) and 5'-[…] with 5'-[…] NO: 154) and 5'-[…] with 5'-[…] NO: 156) and 5'-[…] with 5'-[…] NO: 158) and 5'-[…] NO: 159) (FIG. 12). The desired mutations, as well as the absence of any unwanted mutations, in the resulting DNA fragments were confirmed by nucleotide sequencing. Expression of VEGF-DΔNΔC variants. Plasmids containing DNA encoding VEGF-DΔNΔC or its variants were used for transient transfection of 293-F cells with the FreeStyle MAX 293 Expression System according to manufacturer's instructions (Invitrogen). Cells expressing each variant were cultured in serum-free medium, and 30 ml of conditioned media was collected 7 days post-transfection and used for analysis. Western Blot Analysis. Conditioned media containing different variants of VEGF-DΔNΔC were resolved by SDS-PAGE, transferred to nitrocellulose membrane, probed with M2 anti-FLAG or VDnmAb antibodies labeled with IRDye 800CW according to manufacturer's instructions (LI-COR), and detected with an Odyssey Infrared Imaging System (LI-COR).

For B1, which “VDnmAb binding to VEGF-DΔNΔC variant in Western blot” value (from here on “VDnmAb binding to VEGF-DΔNΔC variant”) is on record?
Its value is “complete loss of VDnmAb binding”.

How did the “VDnmAb binding to VEGF-DΔNΔC variant” value turn out when B2 was run?
The value was “complete loss of VDnmAb binding”.

For B3, which “VDnmAb binding to VEGF-DΔNΔC variant” value is on record?
The value was “complete loss of VDnmAb binding”.
